Measurements: the nanobody polyreactivity screen of Harvey et al. (2022)

Experiment: yeast display, Sf9 membrane polyspecificity reagent, FACS + sequencing; frameworks hold sequencing errors
Summary of the method: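 Nanobodies from a synthetic yeast display library (Saccharomyces cerevisiae BJ5465), induced 36–48 hours with galactose, were stained 1 hour at 4 °C with 10% biotinylated, detergent-solubilized Sf9 membrane reagent, enriched on streptavidin microbeads, then FACS-sorted. Anti-HA (expression) and streptavidin (reagent binding) fluorescence set low and high (top ~1%) gates. Polyreactivity labels come from the gate of origin. Genes were colony-PCR amplified, MiSeq 2 × 250 sequenced and filtered by CDR length.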

Sequence	polyreactivity (PSR sort gate)
QVQLVESGGGLVQAGGSLRLSCAASGRIFPYNAMGWYRQAPGKERELVAAISGRGGSTYYADSVKGRFTISRDNAKNTVYLQMNSLKPEDTAVYYCAKRYVYPGAKHRFRGYDYWGQGTQVTVSS	high polyreactivity
QVQLVESGGGLVQAGGSLRLSCAASGRIFPYYAMGWYRQAPGKERELVAAISLSGGSTYYADSVKGRFTISRDNAKNTVYLQMNSLKPEDTAVYYCNAVASTYGYYWYPGLGYDYWGQGTQVTVSS	low polyreactivity
QVQLVESGGGLVQAGGSLRLSCAASGRIFPYYAMGWYRQAPGKERELVAAISQSGGRTYYADSVKGRFTISRDNAKNTVYLQMNSLKPEDTAVYYCIAYTYSSGYDYWGQGTQVTVSS	high polyreactivity
QVQLVESGGGLVQAGGSLRLSCAASGRIFPYYAMGWYRQAPGKERELVAAISRSGGRTYYADSVKGRFTISRDNAKNTVYLQMNSLKPEDTAVYYCATPSKALPPHCRAILDYWGQGTQVTVSS	high polyreactivity
QVQLVESGGGLVQAGGSLRLSCAASGRIFPYYAMGWYRQAPGKERELVATISTAGSTNYADSVKGRFTISRDNAKNTVYLQMNSLKPEDTAVYYCATRNTWYHRGYDYWGQGTQVTVSS	low polyreactivity
QVQLVESGGGLVQAGGSLRLSCAASGRIFPYYDMGWYRQAPGKERELVAGITTSGGTTYADSVKGRFTISRDNAKNTVYLQMNSLKTEDTAVYYCNKLRLRLSRWTYDYWGHGTQVTVSS	low polyreactivity
QVQLVESGGGLVQAGGSLRLSCAASGRIFQFYAMGWYRQAPGKERELVAAITTGGSTKYADSVKGRFTISRDNAKNTVYLQMNSLKPEDTAVYYCAARAHYYVYRPGIRRYDYWGQGTQVTVSS	high polyreactivity
QVQLVESGGGLVQAGGSLRLSCAASGRIFQFYTMGWYRQAPGKERELVASISSAGSTNYADSVKGRFTISRDNAKNTVYLQMNSLKPEDTAVYYCRYTYYWMGYWGQGTQVTVSS	high polyreactivity
QVQLVESGGGLVQAGGSLRLSCAASGRIFQGYAMGWYRQAPGKERELVASIRTGGTTNYADSVKGRFTISRDNAKNTVYLQMNRLKPEDTAVYYCNRGYYSYYGGYYYWGQGTQVTVSS	high polyreactivity
QVQLVESGGGLVQAGGSLRLSCAASGRIFQGYVMGWYRQAPGKERELVAAITTGGSTYYADSVKGRFTISRDNAKNTVYLQMNSLKPEDTAVYYCNAVVYVSGYNPYIFGYWGQGTQVTVSS	low polyreactivity
QVQLVESGGGLVQAGGSLRLSCAASGRIFQKYAMGWYRQAPGKERELVAVITGRGGSTYYADSVKGRFTISRDNAKNTVFLLMNSLKKEDTAVYYCASVPGYWGQGTQVTVSS	high polyreactivity
QVQLVESGGGLVQAGGSLRLSCAASGRIFQLYAMGWYRLAPGKERELVAVISSGDRTYYADSVKGRFTISRDNAKNTVYLQMNSLKPEDTAVYYCAALGWHSGGSRWHGEYDYWGQGTQVTVSS	low polyreactivity
QVQLVESGGGLVQAGGSLRLSCAASGRIFQLYAMGWYRQAPGKERELVAANAWSGGSTYYADSVKGRFTISRDNAKNSVYLQMNSLKPEDTAVYDCAVEGYHGSRRYYYWGQGTQVTVSS	high polyreactivity
QVQLVESGGGLVQAGGSLRLSCAASGRIFQQNAMGWYRQAPGKERELVAAISSRGGSTYYADSVKGRFTISRDNAKNTVYLQMNSLKPEDTAVYYCARQYQSYRYRGYDYWGQGTQVTVSS	low polyreactivity
QVQLVESGGGLVQAGGSLRLSCAASGRIFQQNGMGWYRQAPGKERELVAGINSGVGTNYADSVKGRFTISRDNAKNTVYLQRNSLKPEDTAVYYCAKSQPSYSGDRDYWGPGTQVTVSS	low polyreactivity
QVQLVESGGGLVQAGGSLRLSCAASGRIFQRNAMGWYRLAPGKERELVAAITSTGVRTYYADSVKGRFTISRDNAKNTVYLQLNSLKPEDTAVYYCAVRGERRYIYDYWGQGTQVTVSS	high polyreactivity
QVQLVESGGGLVQAGGSLRLSCAASGRIFQRNVMGWYRQAPGKERELVASITGGGTTNYADSVKGRFTISRDNAKNTVYLQMNSLKPEDTAVYYCAKGYGASNDPGYVRKRYGYWGQGTQVTVSS	low polyreactivity
QVQLVESGGGLVQAGGSLRLSCAASGRIFQTYTMGWYRQAPGKERELVARITGGDSTYYADSVKGRFTISRDNAKNTVYLQMNSLKPEDTAVYYCAGEVWSYWGTFNYWGQGTQVTVSS	low polyreactivity
QVQLVESGGGLVQAGGSLRLSCAASGRIFQWNAMGWYRQAPGKERELVATISSRGGSTYYADSVKGRFTISRDNANNTVYLQMNSLKPEDTAVYYCAARYYAKYRSYDYWGLGTQVTVSS	high polyreactivity
QVQLVESGGGLVQAGGSLRLSCAASGRIFQYNAMGWYRQAPGKERELVAAISNSDSTNYADSVKGRFTISRDNAKNTDYLQLNRVKPEDTAVYYCARRYYFYRWVIPDYDYWGQGTQVTVSS	low polyreactivity
QVQLVESGGGLVQAGGSLRLSCAASGRIFQYNVMGWYRKAPGKERELVASISDGVGTNYADSVKGRFTISRDNAKNTVYLQMNSLKPEDTAVYYCARDLDPGYQYTGPYDYWGQGTQVTVSS	low polyreactivity

Sequence	polyreactivity (PSR sort gate)
QVQLVESGGGLVQAGGSLRLSCAASGRIFQYNVMGWYRQAPGKERELVAAISSGGNTYYADSVKGRFTISRDNAKNTVNLPMNSLKPEDTAVYYCAADHYVPWPNYDYDYWGQGTQVTVSS	low polyreactivity
QVQLVESGGGLVQAGGSLRLSCAASGRIFQYYAMGWYRPAPGKEREFVAAISDSGSNTYYADSVMGRFTISRDNAKNTVYLQMNSLKPEDTAVYYSAALYATRALFYYWGQGTQGTVSS	low polyreactivity
QVQLVESGGGLVQAGGSLRLSCAASGRIFQYYAMGWYRQAPGKERELVAAISSRGGSTSYADSVKGRFTISRDKAKNTVYLQMNSLKPEDTAVYYCNAKSRISYWYDYWGQGTQVTVSS	high polyreactivity
QVQLVESGGGLVQAGGSLRLSCAASGRIFQYYAMGWYRQAPGKERELVAAITRSGGRTYYADSVKGRFTISRDNAKNTVYLQMYSLKPEDTAVYYCAASQRYSVIYYGFSEYDYWGQGTQVTVSS	high polyreactivity
QVQLVESGGGLVQAGGSLRLSCAASGRIFQYYVMGWYRQAPGKERELVAAITSGGGTKYADSVKGRFTISRDNAKNTVYLQMIRLKPEDTAVYYCAAAWFDQYSRYDYWGQCTQVTVSS	low polyreactivity
QVQLVESGGGLVQAGGSLRLSCAASGRIFRANAMGWYRQAPGKEGELVAAISRSAGSTYYADSVKGRFTISRDKAKNTVYLQMNSLKPEDTAVYYCAAVVRNPGTYDYWGQGTQVTVSS	high polyreactivity
QVQLVESGGGLVQAGGSLRLSCAASGRIFRAYAMGWYRQAPGKERELVASISRSGGSTYYADSVKGRFTISRDNSKNTVYLQMYSLKPEDTAVYYCAAVQPVGLYPRTKYYYCGQGTQVTVSS	high polyreactivity
QVQLVESGGGLVQAGGSLRLSCAASGRIFRAYVMGWYRQAPGKEREYVAAITRSGGSTYYADSVKGRFTISRDNAKNTVYLQMNSLKPEDTAVYYCAAPVYLYGTVGRGDYWGQGTQVTVSS	high polyreactivity
QVQLVESGGGLVQAGGSLRLSCAASGRIFRDYGMGWYRQAPGKERELVAAINTSGRTYYADSVKGRFTISRDNAKNTVYLQMNSLKPEDTAVYYCATTSRELGELRIFDYWGQGSQVTVSS	low polyreactivity
QVQLVESGGGLVQAGGSLRLSCAASGRIFRFYAMGWSSQAPGKERELVAAISTSGRTNYADSVKGRFTISRDNAKNTVYLQMNSLKPEDTAVYYCAAGTVLQGWSGAYGYWGQGTQVTVSS	high polyreactivity
QVQLVESGGGLVQAGGSLRLSCAASGRIFRFYAMGWYRHPPGKERELVAAIRRGGSTTYADSVKGRFTISRDNAKNTVYLQMNSLKPEDTAVYYCAATQYYRGYDYWGQGTQVTVSS	high polyreactivity
QVQLVESGGGLVQAGGSLRLSCAASGRIFRFYAMGWYRPAPGKERELVAAISSRGGSTYYADSVKGRFTISRDNAKNTDYFQMNSLKPEDTAVYYCNAYGSTSQMDYWGQGTQVTVSS	high polyreactivity
QVQLVESGGGLVQAGGSLRLSCAASGRIFRFYAMGWYRQAPGKERELVAAINSRGGSTYYADSVKGRFTISRDNAKNTVYLQMNSLKPEDTAFYYCNARSGFGYGYGYWGQGTQVTVSS	high polyreactivity
QVQLVESGGGLVQAGGSLRLSCAASGRIFRFYAMGWYRQAPRKERELVATIRRGDSTSYADSVKGRFTISRDNAKNTVYLQMNSLKPEDTAVYYCAAVWPSHVGTTYFWHKYGYWGQGTQVTVSS	high polyreactivity
QVQLVESGGGLVQAGGSLRLSCAASGRIFRGYAMGWSRQAPGKERELVAVISYSGTRTYYADSVKGRFTISRDNAKNTVYLQMNSLKPEDTAVYYCNARANGFKDGYWGQGTQVTVSS	high polyreactivity
QVQLVESGGGLVQAGGSLRLSCAASGRIFRGYAMGWYRQAPGKEREFVAAITKNGGSTYYADSVKGRFTISRDNAKNTVYLQMHSLKPEDTAVYYCAVRAWDPYTGKSDYWGQGTQVTVSS	low polyreactivity
QVQLVESGGGLVQAGGSLRLSCAASGRIFRGYAMGWYRQAPGKERELVAAINGGDSTYADSVKGRFTISRDNAKNTVFLQMNSLIPEDTAVYYCAAAHYFLGPQGASFYYWGQGTQVTVSS	low polyreactivity
QVQLVESGGGLVQAGGSLRLSCAASGRIFRGYAMGWYRQAPGKERELVAAISGRGGRTNYADSVKGRFTISRDNAKNTVYLQMNSLKPEDTAVYYCATVPYTASRYEYWGQGTQVTVSS	high polyreactivity
QVQLVESGGGLVQAGGSLRLSCAASGRIFRGYAMGWYRQAPGKERELVAAISRRGGSTSYADSVKGRFTISRDNAKNTVYLQMNSLKPEDTAVYYCAVDYSKNGDDYWGQGTQVTVSS	high polyreactivity
QVQLVESGGGLVQAGGSLRLSCAASGRIFRGYGMGWYSQAPGKERVLVAAITSRGGSTYYADSVKGRFTSSRDNAKNTVYLQMNSLKPQDTAVYYCYAVAFYYVGSKTYTRGLDYWGQGTQVTVSS	high polyreactivity
